Data published in the RNAGym collection of RNA variant scans (doi:10.7554/elife.80360).

B1: Hammerhead Ribozyme (parent)
chain: ACCGGAUGUGCUUUCCGGUCUGAUGAGUCCGUGAGGACGAAACAG

Variants of: B1
Test: self-cleavage, relative activity (ratio to wild type); higher = more cleavage; co-transcriptional

First: ACCGGAUGUGCUUUCCUUUCUGAUGAGUCCGUGAGGACGAAACAG
Second: ACCGGAUGUGCUUUCCUCUCUGAUGAGUCCGUGAGGACGAAACAG
The self-cleavage of the first is lower: 0.442 for the first, 0.503 for the second.

Going from ACCGGAUGUGCUUUCCUAUCUGAUGAGUCCGUGAGGACGAAACAG to ACCGGAUGUGCUUUCCUGUCUGAUAAGUCCGUGAGGACGAAACAG, the self-cleavage falls from 0.419 to 0.347.

Going from ACCGGAUGUGCUUUCCUGUCUGAUCAGUCCGUGAGGACGAAACAG to ACCGGAUGUGCUUUCCUGUCUGAUUAGUCCGUGAGGACGAAACAG, the self-cleavage rises from 0.319 to 0.37.

Compared with ACCGGAUGUGCUUUCCUGUCUGAUGAGUCCGUGAGGACGGAACAG, ACCGGAUGUGCUUUCCUGUCUGAUGAGUCCGUGAGGACGUAACAG is lower in self-cleavage: 0.388 for the first, 0.376 for the second.

Compared with ACCGGAUGUGCUUUCCUGUCUGAUGAGUCCGUGAGGACGCAACAG, ACCGGAUGUGCUUUCCUGUCCGAUGAGUCCGUGAGGACGAAACAG is lower in self-cleavage: 0.449 for the first, 0.306 for the second.

First: ACCGGAUGUGCUUUCCUGUCGGAUGAGUCCGUGAGGACGAAACAG
Second: ACCGGAUGUGCUUUCCUGUCAGAUGAGUCCGUGAGGACGAAACAG
The self-cleavage of the first is lower: 0.387 for the first, 0.591 for the second.

First: ACCGGAUGUGCUUUCCUGUCUGAUGAGUCCGUGAGGACGAAACAU
Second: ACCGGAUGUGCUUUCCUGUCUGAUGAGUCCGUGAGGACGAAACAA
The self-cleavage of the first is higher: 0.589 for the first, 0.436 for the second.

First: ACCGGAUGUGCUUUCCUGUCUGAUGAGUCCGUGAGGACGAAACAC
Second: ACCGGAUGUGCUUUCCUGUCUGAUGAGUCCUUGAGGACGAAACAG
The self-cleavage of the first is lower: 0.513 for the first, 0.834 for the second.

Compared with ACCGGAUGUGCUUUCCUGUCUGAUGAGUCCAUGAGGACGAAACAG, ACCGGAUGUGCUUUCCUGUCUGAUGAGUCCCUGAGGACGAAACAG is lower in self-cleavage: 0.918 for the first, 0.86 for the second.

Going from ACCGGAUGUGCUUUCCUGUCUGAUGAGUCCGUGAGGACGAAACCG to ACCGGAUGUGCUUUCCUGUCUGAUGAGUCCGUGAGGACGAAACUG, the self-cleavage falls from 0.495 to 0.469.

Going from ACCGGAUGUGCUUUCCUGUCUGAUGAGUCCGUGAGGACGAAACGG to ACCGGAUGUGCUUUCCUGUCUGAUGAGUCCGUGAGGACGAAAUAG, the self-cleavage falls from 0.877 to 0.379.

First: ACCGGAUGUGCUUUCCUGUCUGAUGAGUCCGUGAGGACGAAAGAG
Second: ACCGGAUGUGCUUUCCUGUCUGAUGAGUCCGUGAGGACGAAAAAG
The self-cleavage of the first is lower: 0.291 for the first, 0.356 for the second.

First: ACCGGAUGUGCUUUCCUGUCUGAUGAGUCAGUGAGGACGAAACAG
Second: ACCGGAUGUGCUUUCCUGUCUGAUGAGUCGGUGAGGACGAAACAG
The self-cleavage of the first is lower: 0.583 for the first, 0.59 for the second.

Compared with ACCGGAUGUGCUUUCCUGUCUGAUGAGUCUGUGAGGACGAAACAG, ACCGGAUGUGCUUUCCUGUCUGAUGAGUCCGUAAGGACGAAACAG is higher in self-cleavage: 0.755 for the first, 0.862 for the second.

Going from ACCGGAUGUGCUUUCCUGUCUGAUGAGUCCGUCAGGACGAAACAG to ACCGGAUGUGCUUUCCUGUCUGAUGAGUCCGUUAGGACGAAACAG, the self-cleavage rises from 0.851 to 0.9.

Compared with ACCGGAUGUGCUUUCCUGUCUGAUGAGGCCGUGAGGACGAAACAG, ACCGGAUGUGCUUUCCUGUCUGAUGAGACCGUGAGGACGAAACAG is higher in self-cleavage: 0.513 for the first, 0.58 for the second.

Compared with ACCGGAUGUGCUUUCCUGUCUGAUGAGCCCGUGAGGACGAAACAG, ACCGGAUGUGCUUUCCCGUCUGAUGAGUCCGUGACGACGAAACAG is lower in self-cleavage: 0.495 for the first, 0.403 for the second.

Compared with ACCGGAUGUGCUUUCCCGUCUGAUGAGUCCGUGAAGACGAAACAG, ACCGGAUGUGCUUUCCCGUCUGAUGAGUCCGUGAUGACGAAACAG is lower in self-cleavage: 0.535 for the first, 0.371 for the second.

First: ACCGGAUGUGCUUUCCUGUCUGAUGAGUCCGUGAGGUCGAAACAG
Second: ACCGGAUGUGCUUUCCUGUCUGAUGAGUCCGUGAGGCCGAAACAG
The self-cleavage of the first is lower: 0.586 for the first, 0.688 for the second.

Compared with ACCGGAUGUGCUUUCCUGUCUGAUGAGUCCGUGAGGGCGAAACAG, ACCGGAUGUGCUUUCCCGCCUGAUGAGUCCGUGAGGACGAAACAG is lower in self-cleavage: 0.568 for the first, 0.332 for the second.

Going from ACCGGAUGUGCUUUCCCGACUGAUGAGUCCGUGAGGACGAAACAG to ACCGGAUGUGCUUUCCCGGCUGAUGAGUCCGUGAGGACGAAACAG, the self-cleavage rises from 0.335 to 0.337.

First: ACCGGAUGUGCUUUCCCGUCUGAUGAGGCCGUGAGGACGAAACAG
Second: ACCGGAUGUGCUUUCCCGUCUGAUGAGCCCGUGAGGACGAAACAG
The self-cleavage of the first is higher: 0.395 for the first, 0.276 for the second.

First: ACCGGAUGUGCUUUCCCGUCUGAUGAGACCGUGAGGACGAAACAG
Second: ACCGGAUGUGCUUUCCUGUCUGAUGAGUGCGUGAGGACGAAACAG
The self-cleavage of the first is lower: 0.391 for the first, 0.591 for the second.

Compared with ACCGGAUGUGCUUUCCUGUCUGAUGAGUACGUGAGGACGAAACAG, ACCGGAUGUGCUUUCCUGUCUGAUGAGUUCGUGAGGACGAAACAG is higher in self-cleavage: 0.523 for the first, 0.748 for the second.

First: ACCGGAUGUGCUUUCCUGUCUGAUGUGUCCGUGAGGACGAAACAG
Second: ACCGGAUGUGCUUUCCUGUCUGAUGGGUCCGUGAGGACGAAACAG
The self-cleavage of the first is higher: 0.527 for the first, 0.33 for the second.

First: ACCGGAUGUGCUUUCCUGUCUGAUGCGUCCGUGAGGACGAAACAG
Second: ACCGGAUGUGCUUUCCCGUCUGAUGAGUCCGUGAGGACAAAACAG
The self-cleavage of the first is higher: 0.448 for the first, 0.342 for the second.

Going from ACCGGAUGUGCUUUCCCGUCUGAUGAGUCCGUGAGGACUAAACAG to ACCGGAUGUGCUUUCCCGUCUGAUGAGUCCGUGAGGACCAAACAG, the self-cleavage falls from 0.33 to 0.291.

Going from ACCGGAUGUGCUUUCCCGUCUGAAGAGUCCGUGAGGACGAAACAG to ACCGGAUGUGCUUUCCCGUCUGAGGAGUCCGUGAGGACGAAACAG, the self-cleavage falls from 0.493 to 0.462.

With ACCGGAUGUGCUUUCCCGUCUGACGAGUCCGUGAGGACGAAACAG the self-cleavage was 0.457.
